In patent US8524668:

Target: TLR2/TLR6 heterodimer
Experiment: cell-based or functional assay

Substance	NF-κB activation
CBLB613 (peptide)	200
CBLB617 (peptide)	100
